Test results reported in patent publication US20240199746A1 (published 2024).
Where a chain is given by its changes, count along the chain named.

T1: Ax1 protein, extracellular domain (human, UniProt P30530 26-451)
T1 construct: extracellular domain; also called Axl; Ark
T1 sequence (looked up): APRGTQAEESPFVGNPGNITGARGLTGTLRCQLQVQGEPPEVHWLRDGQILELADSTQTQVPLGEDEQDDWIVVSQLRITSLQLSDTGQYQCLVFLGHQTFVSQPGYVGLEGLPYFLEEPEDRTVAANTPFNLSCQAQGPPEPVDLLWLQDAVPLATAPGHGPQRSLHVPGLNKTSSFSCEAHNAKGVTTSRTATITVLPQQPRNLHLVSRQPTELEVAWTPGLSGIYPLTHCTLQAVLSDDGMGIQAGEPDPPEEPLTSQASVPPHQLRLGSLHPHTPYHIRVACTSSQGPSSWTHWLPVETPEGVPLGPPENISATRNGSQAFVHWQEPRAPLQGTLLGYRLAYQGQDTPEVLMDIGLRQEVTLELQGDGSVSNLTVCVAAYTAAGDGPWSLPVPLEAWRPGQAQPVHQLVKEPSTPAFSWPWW

B1: LC-V029D (antibody, V domains shown)
VH: EVQLVQSGAEVKKPGATVKISCKVSGYSFTGHTMNWIRQPPGKGLEWIGLIKPSNGGTSYNQKFKGRVTISADKSISTAYLQWSSLKASDTAMYYCAHGHYESYFAMDYWGQGTLVTVSS
VL: DIQMTQSPSSLSASVGDRVTITCKASQDDSSAVAWYQQKPGQAPRLLIYWASTRHTGVPSRFSGSGSGTEFTLTISSLQPDDFATYYCQEHFSTPLTFGQGTKVEIK
notes: CPE single point mutant
B2: LC-V029G (antibody, V domains shown)
VH: B1 VH
VL: B1 VL with D29G
notes: CPE single point mutant
B3: LC-V029W (antibody, V domains shown)
VH: B1 VH
VL: B1 VL with D29W
notes: CPE single point mutant
B4: LC-V029N (antibody, V domains shown)
VH: B1 VH
VL: B1 VL with D29N
notes: CPE single point mutant
B5: LC-W050F (antibody, V domains shown)
VH: B1 VH
VL: B1 VL with D29V, W50F
notes: CPE single point mutant

Target: T1, Ax1 protein, extracellular domain
Assay: ELISA, mutant diluted 1:3
Outline: (§1)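 Single-point-mutant antibody library from Comprehensive Positional Evolution, screened by ELISA for selective binding to the Ax1 extracellular domain at pH 6.0 over pH 7.4. Mutant antibodies tested at 1:3 and 1:9 dilutions.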

Q: How did the “Affinity ELISA CPE mutant ratio (1:3, pH 6.0/7.4)” value turn out when B1 was run?
A: 2.88

Q: B2 was tested. Which “Affinity ELISA CPE mutant ratio (1:3, pH 6.0/7.4)” value did it give?
A: 1.94

Q: How did the “Affinity ELISA CPE mutant ratio (1:3, pH 6.0/7.4)” value turn out when B3 was run?
A: 2.31

Q: How did the “Affinity ELISA CPE mutant ratio (1:3, pH 6.0/7.4)” value turn out when B4 was run?
A: 2.6

Q: Which “Affinity ELISA CPE mutant ratio (1:3, pH 6.0/7.4)” value does the source give for B5 here?
A: 2.25

Target: T1, Ax1 protein, extracellular domain
Assay: ELISA, mutant diluted 1:9
Outline: as §1

Q: Which “Affinity ELISA CPE mutant ratio (1:9, pH 6.0/7.4)” value does the source give for B1 here?
A: 2.68

Q: With B2 as the binder, how does the “Affinity ELISA CPE mutant ratio (1:9, pH 6.0/7.4)” value read?
A: 1.8

Q: B3 was tested. Which “Affinity ELISA CPE mutant ratio (1:9, pH 6.0/7.4)” value did it give?
A: 2.35

Q: With B4 as the binder, how does the “Affinity ELISA CPE mutant ratio (1:9, pH 6.0/7.4)” value read?
A: 2.65

Q: B5 was tested. Which “Affinity ELISA CPE mutant ratio (1:9, pH 6.0/7.4)” value did it give?
A: 3.5
